Measured values published in patent US5618693, “Interleukin-2 signal transducers and binding assays” (Tularik, Inc.).

Target: hStat 5 (affinity purified, 98/94/88 kD from YT cells; 96/95 kD from PBLs) (Homo sapiens, UniProt P42229 SEQ:1-794)
Experiment: pulldown; biotinylated DNA on streptavidin agarose, buffer C, 4 C; retained through wash with mutant oligo 0.2 mg/ml, eluted 0.35 M NaCl
Conditions: tags: native, tyrosine phosphorylated; chain copies: 2
Procedure: After dialysis, insoluble proteins were removed by centrifugation and the remaining material was chromatographed over a 100 ml S-Sepharose (Pharmacia) column. Protein flow-through was mixed with a DNA-affinity resin prepared by coupling synthetic, biotinylated DNA corresponding to the IL-4 response element of the gene encoding FcgRI (5'-[…]-3) (SEQ ID NO:3) to streptavidin agarose (Sigma). After binding (2 hours at 4° C.), the affinity matrix was placed on a disposable column and washed sequentially with 10 ml of buffer C, 4 ml of buffer C supplemented with a mutated variant of the IL-4 response element (5'-GTATCACCAGTCAAGGAAC-3') (SEQ ID NO:4) at 0.2 mg/ml, and 10 ml of buffer C. Protein was eluted by exposure to buffer C supplemented with 0.35M NaCl, dialyzed against buffer C, and placed on a 0.5 ml Q-Sepharose (Pharmacia) column. The column was washed with 5 ml of buffer C and protein was eluted with 1 ml of buffer C supplemented with 0.35M NaCl.

Sequence of hStat 5 (affinity purified, 98/94/88 kD from YT cells; 96/95 kD from PBLs) (P42229 whole entry): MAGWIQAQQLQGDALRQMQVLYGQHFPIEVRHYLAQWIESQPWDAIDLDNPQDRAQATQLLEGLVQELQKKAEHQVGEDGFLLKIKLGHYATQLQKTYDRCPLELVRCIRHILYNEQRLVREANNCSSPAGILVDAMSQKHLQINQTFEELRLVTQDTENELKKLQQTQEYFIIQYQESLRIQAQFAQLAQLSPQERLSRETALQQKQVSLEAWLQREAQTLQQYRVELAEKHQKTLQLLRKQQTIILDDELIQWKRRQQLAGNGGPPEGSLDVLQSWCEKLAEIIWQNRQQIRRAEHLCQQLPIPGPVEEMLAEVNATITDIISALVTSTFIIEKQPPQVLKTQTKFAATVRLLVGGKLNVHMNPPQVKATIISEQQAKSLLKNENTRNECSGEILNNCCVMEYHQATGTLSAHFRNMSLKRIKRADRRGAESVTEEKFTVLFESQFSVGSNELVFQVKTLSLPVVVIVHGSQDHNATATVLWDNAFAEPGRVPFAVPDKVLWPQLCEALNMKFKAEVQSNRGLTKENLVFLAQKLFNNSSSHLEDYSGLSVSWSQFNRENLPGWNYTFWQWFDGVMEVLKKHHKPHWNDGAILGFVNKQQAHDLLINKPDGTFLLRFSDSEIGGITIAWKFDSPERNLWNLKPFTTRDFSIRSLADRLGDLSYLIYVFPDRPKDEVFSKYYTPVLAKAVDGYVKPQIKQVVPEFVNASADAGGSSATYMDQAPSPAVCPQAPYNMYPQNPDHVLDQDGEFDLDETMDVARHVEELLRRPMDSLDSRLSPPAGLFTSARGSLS

B1: FcgRI IL-4 response element probe (dsDNA)
DNA 1: GTATTTCCCAGAAAAGGAAC
DNA 2: GTTCCTTTTCTGGGAAATAC
B1: binds.
